In PMC11186766 one finds stoichiometry N data, which are given here for two substances.

Assay [1] concerns the target full-length rat GluK2 kainate receptor (rat) (UniProt P42260). Put plainly: cryo-EM structure; time-resolved cryo-EM: purified GluK2 at 60 uM incubated with 500 uM BPAM344 for 20-30 min on ice, 90 uM succinylated concanavalin A added, 10 mM L-glutamate applied less than 3 s before plunge-freezing; 150 mM NaCl, 20 mM Tris-HCl pH 8.0, 0.05% digitonin.
For assay [2], the target named is succinylated concanavalin A. Described as above.

In the case of “full-length rat GluK2 kainate receptor (from UniProt P42260 32-908)”, the stoichiometry N in assay [1] is 4.

In assay [2], “succinylated concanavalin A (natural protein)” returned a stoichiometry N of 2.

By stoichiometry N is commonly meant a count of units in the complex or per binding partner.
